Source: patent US20220153851A1 (Five Prime, published 2022)

B1: h0301-L0H0 (antibody, human IgG4 S228P, kappa)
heavy: not shown
light: EIVLTQSPATLSLSPGERATLSCKASQSVDYDGDNYMNWYQQKPGQAPRLLIYAASNLESGIPARFSGSGSGTDFTLTISSLEPEDFAVYYCHLSNEDLSTFGGGTKVEIKRTVAAPSVFIFPPSDEQLKSGTASVVCLLNNFYPREAKVQWKVDNALQSGNSQESVTEQDSKDSTYSLSSTLTLSKADYEKHKVYACEVTHQGLSSPVTKSFNRGEC
notes: also called Ab1; huAb 0301-L0H0
B2: h0301-L1H0 (antibody, human IgG4 S228P, kappa)
heavy: not shown
light: NIVLTQSPATLSLSPGERATLSCKASQSVDYDGDNYMNWYQQKPGQAPRLLIYAASNLESGIPARFSGSGSGTDFTLTISSLEPEDFAVYYCHLSNEDLSTFGGGTKVEIKRTVAAPSVFIFPPSDEQLKSGTASVVCLLNNFYPREAKVQWKVDNALQSGNSQESVTEQDSKDSTYSLSSTLTLSKADYEKHKVYACEVTHQGLSSPVTKSFNRGEC
notes: also called Ab4; huAb 0301-L1H0
B3: h0311-L1H2 (antibody, human IgG4 S228P, kappa, V domains shown)
VH: QVQLVQSGAEVKKPGSSVKVSCKASGYIFTDYNMHWVRQAPGQGLEWMGEINPNNGVVVYNQKFKGTTTLTVDKSTSTAYMELSSLRSEDTAVYYCTRALYHSNFGWYFDSWGQGTLVTVSS
VL: DIVLTQSPATLSLSPGERATLSCKASQSVDYDGDSHMNWYQQKPGQAPRLLIYTASNLESGIPARFSGSGSGADFTLTISSLEPEDFAVYYCQQGNEDPWTFGQGTKVEIKR
notes: also called Ab16; huAb 0311-L1H2
B4: cAb 0302 (antibody, human IgG4 S228P, kappa)
heavy: not shown
light: DVVVTQTPASLAVSLGQRATISCRASESVDNYGLSFMNWFQQKPGQPPKLLIYTASNLESGIPARFSGGGSRTDFTLTIDPVEADDAATYFCQQSKELPWTFGGGTRLEIKRTVAAPSVFIFPPSDEQLKSGTASVVCLLNNFYPREAKVQWKVDNALQSGNSQESVTEQDSKDSTYSLSSTLTLSKADYEKHKVYACEVTHQGLSSPVTKSFNRGEC
B5: h0302-L1H2 (antibody, human IgG4 S228P, kappa, V domains shown)
VH: QVQLVQSGAEVKKPGSSVKVSCKASGYTFSDFNIHWVRQAPGQGLEWIGYINPYTDVTVYNEKFKGRATLTSDKSTSTAYMELSSLRSEDTAVYYCASYFDGTFDYALDYWGQGTLVTVSS
VL: EIVLTQSPATLSLSPGERATLSCRASESVDNYGLSFMNWYQQKPGQAPRLLIYTASNLESGIPARFSGSGSRTDFTLTISSLEPEDFAVYYCQQSKELPWTFGQGTKVEIKR
notes: also called Ab11; huAb 0302-L1H2
B6: h0302-L2H2 (antibody, human IgG4 S228P, kappa, V domains shown)
VH: QVQLVQSGAEVKKPGSSVKVSCKASGYTFSDFNIHWVRQAPGQGLEWIGYINPYTDVTVYNEKFKGRATLTSDKSTSTAYMELSSLRSEDTAVYYCASYFDGTFDYALDYWGQGTLVTVSS
VL: EIVVTQSPATLSLSPGERATLSCRASESVDNYGLSFMNWFQQKPGQAPRLLIYTASNLESGIPARFSGSGSRTDFTLTISSLEPEDFAVYYCQQSKELPWTFGQGTKVEIKR
notes: also called Ab12; huAb 0302-L2H2
B7: cAb 0311 (antibody, human IgG4 S228P, kappa, V domains shown)
VH: EIQLQQSGPDLMKPGASVKMSCKASGYIFTDYNMHWVKQNQGKSLEWMGEINPNNGVVVYNQKFKGTTTLTVDKSSSTAYMDLHSLTSEDSAVYYCTRALYHSNFGWYFDSWGKGTTLTVSS
VL: DIVLTQSPASLAVSLGQRATISCKASQSVDYDGDSHMNWYQQKPGQPPKLLIYTASNLESGIPARFSGSGSGADFTLTIHPVEEEDAATYYCQQGNEDPWTFGGGTRLEIKR

Assays:
[1] = molecular target: T1, human CSF1R on CSF1R (SEQ ID NO: 2)-transfected CHO cells (human, UniProt P07333 20-972); assay: cell-based or functional assay
cynoCSF1R ECD-Fc [2] = molecular target: T2, cynoCSF1R ECD-Fc (cynomolgus); assay: competition ELISA, blocking of human CSF1 binding to cynoCSF1R ECD-Fc
T2 construct: also called cynomolgus CSF1R ECD
Protocol: The humanized antibodies, along with the parental chimeric antibodies (cAbs), were tested for their ability to block human CSF1 binding to human and cynomolgus CSF1R ECD, as follows.
Recombinant Human CSF1 (M-CSF; R&D Systems) was biotinylated using an NH₂-Biotin Labeling Kit (Dojindo Molecular Technologies). One hundred μl of 1 μg/ml biotinylated CSF1 in PBST/0.1% BSA was added to the wells of Reacti-Bind Streptavidin coated plates (Pierce) pre-blocked with SuperBlock blocking buffer (Pierce) according to the manufacturer's instructions. Fifty μl of 0.5× serial dilutions of the humanized antibody or parental chimeric antibody, beginning with 2000 ng/ml, was incubated with 50 ng/ml hCSF1R ECD.506-Fc (SEQ ID NO: 6; FivePrime Therapeutics) or 50 ng/ml cynoCSF1R ECD-Fc (FivePrime Therapeutics, SEQ ID NO: 8, but without the 19 amino acid leader sequence) in 100 μl PBST/0.1% BSA for 90 min at RT, after which the admix was transferred to one or more wells of a ligand-coated plate. After 90 min at RT, wells were washed with PBST, and a 1:5000 dilution of an Fc-fragment-specific peroxidase-conjugated goat anti-human IgG (Jackson Immuno Research) in PBST/0.1% BSA was added to each well. After incubation at RT for 60 min, wells were washed with PBST/0.1% BSA, and o-phenylenediamine dihydrochloride peroxidase substrate (Sigma) was added to each well. After incubation at RT for 30 min, A450 values of each well were read directly on a SpectraMaxPlus spectrophotometer with SoftMaxPro software (Molecular Devices).

hCSF1R ECD.506-Fc = molecular target: T3, hCSF1R ECD.506-Fc (human); assay: ELISA, plate coated with human CSF1R ECD-Fc
T3 construct: also called human CSF1R ECD-Fc fusion protein; human CSF1R ECD
Protocol: (§1) Ninety-six well clear-bottom ELISA plates were coated overnight with 1 μg/ml recombinant hCSF1R ECD.506-Fc (SEQ ID NO: 6; FivePrime Therapeutics) or Human M-CSF R Fc Chimera (R&D Systems) in PBS. The next morning, wells were washed four times with 0.05% Tween20 in PBS (PBST) and blocked with Blocker-Blotto (Pierce). Fifty μl of 0.5× serial dilutions of the humanized antibody or parental chimeric antibody, beginning with 2000 ng/ml, diluted 1:1 in Blocker-Blotto were added to the CSF1R-coated wells. After incubation at room temperature (RT) for 90 min, wells were washed four times with PBST, and a 1:5000 dilution of a peroxidase-conjugated Goat anti-Human kappa Light chain antibody (Sigma) in Blocker-Blotto was added to each well. After incubation at RT for 60 min, wells were washed four times with PBST, and 50 μl o-phenylenediamine dihydrochloride peroxidase substrate (Sigma) was added to each well. After incubation at RT for 30 min, A450 values of each well were read directly on a SpectraMaxPlus spectrophotometer with SoftMaxPro software (Molecular Devices).

cynoCSF1R ECD-Fc [3] = molecular target: T2, cynoCSF1R ECD-Fc; assay: competition ELISA, blocking of human IL34 binding to cynoCSF1R ECD-Fc
cynoCSF1R ECD-Fc [4] = molecular target: T2, cynoCSF1R ECD-Fc; assay: ELISA, plate coated with cynoCSF1R ECD-Fc
Protocol: as §1
The binding curve for each humanized antibody binding to cynomolgus CSF1R ECD was determined as described above for human CSF1R, except the wells of the clear-bottom ELISA plates were coated overnight with 2 μg/ml recombinant cynoCSF1R ECD-Fc (FivePrime Therapeutics, SEQ ID NO: 8, but without the 19 amino acid leader sequence).

hCSF1R ECD.506 = molecular target: T4, hCSF1R ECD.506 (human, UniProt P07333 20-506); assay: SPR Biacore T100, antibody captured on anti-human IgG, hCSF1R ECD.506 as analyte, 1:1 model
T4 construct: also called human CSF1R ECD
Protocol: The kₐ, kd, and KD for binding to human CSF1R ECD was determined for each of the humanized antibodies as follows.
Binding kinetics of anti-CSF1R humanized antibodies to CSF1R ECD was determined using Biacore T100 Surface Plasmon Resonance (SPR) (GE Healthcare Life Sciences, Piscataway, N.Y.). Each of the humanized anti-CSF1R antibodies was captured on a CM5 sensor chip immobilized with anti-Human IgG antibody using the Human antibody capture kit (GE Healthcare Life Sciences, Piscataway, N.Y.) at 150 RU so that the Rmax value for hCSF1R ECD.506 (SEQ ID NO: 5) binding was 100 RU. Rmax values of less than 150 RU are recommended for accurately determining kinetic values. […] The association constant, dissociation constant, affinity, and binding capacity of each of the Fabs for human CSF1R ECD was calculated using the Biacore T100 Evaluation software package using the 1:1 binding model.

mCSF1R ECD-Fc = molecular target: T5, mCSF1R ECD-Fc (mouse); assay: ELISA, plate coated with mCSF1R ECD-Fc, detection anti-human kappa-HRP, A450
T5 construct: also called mouse CSF1R ECD
Protocol: as §1
The binding curve for each humanized antibody binding to mouse CSF1R ECD was determined as described above for human CSF1R, except the wells of the clear-bottom ELISA plates were coated overnight with 2 μg/ml recombinant mCSF1R ECD-Fc (FivePrime Therapeutics, SEQ ID NO: 93).

[5] = molecular target: T1, human CSF1R on CSF1R (SEQ ID NO: …); assay: cell-based or functional assay; remark: listed apart in the source
[6] = molecular target: T1, human CSF1R on CSF1R (SEQ ID NO: …); assay: cell-based or functional assay; remark: listed apart in the source
[7] = molecular target: T1, human CSF1R on CSF1R (SEQ ID NO: …); assay: cell-based or functional assay; remark: listed apart in the source

IC50, inhibition of CSF1-induced CSF1R phosphorylation (head prints 'Human CSF1/Human CSF1R ECD IC50') [1] [mg/L]	IC50, inhibition of IL34-induced CSF1R phosphorylation (head prints 'Human IL34/Human CSF1R ECD IC50') [1] [mg/L]	IC50 (cynoCSF1R ECD-Fc [2]) [mg/L]	EC50 (hCSF1R ECD.506-Fc) [mg/L]	IC50 (cynoCSF1R ECD-Fc [3]) [mg/L]	EC50 (cynoCSF1R ECD-Fc [4]) [mg/L]	Kd (hCSF1R ECD.506) [nM]	koff (hCSF1R ECD.506) [s⁻¹]	kon (hCSF1R ECD.506) [M⁻¹ s⁻¹]	binding result (mCSF1R ECD-Fc)	CSF1 blocking IC50 (ligand-induced CSF1R phosphorylation in CHO cells) [5] [mg/L]	IL34 blocking IC50 (ligand-induced CSF1R phosphorylation in CHO cells) [5] [mg/L]	IC50 (read off the curve), IL34-induced CSF1R phosphorylation [6] [mg/L]	IC50 (read off the curve), CSF1-induced CSF1R phosphorylation [7] [mg/L]	Binder
1.03	0.433	0.0276	0.0134	0.0359	0.0151	0.35	0.00111	3.22e+06	no binding (tested: 2000 ng/ml)	0.305	0.341			B1
6.15	0.378	0.0255	0.0134	0.0348	0.0119	0.35	0.00115	3.29e+06	no binding (tested: 2000 ng/ml)	0.213	0.242			B2
0.419	0.578	0.0308	0.0133	0.0486	0.0203	0.4	0.000609	1.51e+06	no binding (tested: 2000 ng/ml)			~0.6		B3
0.264	0.351	0.0331	0.0159	0.0494	0.0173				no binding (tested: 2000 ng/ml)				~0.3	B4
0.598	0.495	1.08	0.0221	0.541	0.172	0.56	0.00153	2.71e+06	no binding (tested: 2000 ng/ml)				~0.6	B5
0.354	0.24	0.838	0.0101	0.279	0.018	0.46	0.00084	1.84e+06	no binding (tested: 2000 ng/ml)					B6
0.577	0.994	0.0435	0.0176	0.0521	0.0201				no binding (tested: 2000 ng/ml)			~1		B7
